Measured values reported in patent US10828372B2, “Compositions and methods for the inhibition of fibrosis” (WISCONSIN ALUMNI RESEARCH FOUNDATION, priority 2017, dated 2020).
Where no end group is shown, it is not given here.

Assays:
[1] = system: human foreskin fibroblasts, AH1F cells; assay: Cell viability of fibroblast monolayers in matrix assembly assays (Cell Titer-Glo / AlamarBlue); format: cell-based; conditions: for cell viability: doses ranging from 1 to 20 μM
Description: Microtiter fibronectin matrix assembly assays: Exogenous plasma fibronectin matrix assembly assay: Binding and incorporation of AlexaFluor® 488-plasma fibronectin (A488-FN) to fibroblast monolayers (human foreskin fibroblasts, AH1F cells was carried out using methods known in the art. Briefly, fibroblasts (60000 per well) were allowed to adhere and spread for 2 hours in microtiter plates in 2% fetal calf serum (FCS)-containing DMEM. Peptides or modulators to be tested were added followed by 28 nM A488-FN. Cell monolayers with or without peptides and A488FN were incubated overnight at 37° C. with 5% CO2. Cell monolayers in microwells were washed with PBS or HBSS containing Ca^2+, Mg^2+. Fluorescence in 96-well plates was read using a microplate reader using bottom-readout capabilities at 485 nm excitation and 525 nm emission with 20 nm bandwidths. To estimate cell viability per well after the washes and measurement of fluorescence, an equal volume of luminescence reagent (Cell Titer-Glo®) was added followed by quantification of luminescence. Fluorescence of wells to which A488FN had not been added, i.e. intrinsic fluorescence of the cell monolayer was subtracted from fluorescence values of wells containing ligand. Data is presented respectively for fibronectin fibrillogenesis or cell viability as percent of fluorescence or luminescence values for wells with no peptides. Microplate microscopy was used to ascertain that fluorescence measurements correspond to fibrillary fibronectin.
Endogenous (cellular) fibronectin assembly assay: This immunochemical assay measures the ECM incorporation of EDA-containing fibronectin synthesized by human fibroblasts and human proximal tubular epithelial cells. Human proximal epithelial cells, HK-2 cells, were obtained from ATCC (CRL-2190). The EDA+ fibronectin is a splice variant synthesized and secreted by a variety of cells mostly during embryonic development and during wound healing, ECM remodeling, or fibrotic conditions in the adult. Fibroblasts (AH1F) were cultured in DMEM (Gibco) containing 10% fetal calf serum, and human proximal tubular epithelial cells (HK-2) were cultured in keratinocyte serum free medium (KSFM, containing pituitary extract and rEGF, Invitrogen/Thermo Fisher). Both media also contained 2.5 mM glutamine, 100 IU/ml penicillin, and 100 μg/ml streptomycin. […] Fluorescence of AlamarBlue® was read at 555 nm excitation and 585 nm emission. […] Similar to the measurement of exogenous A488-FN fluorescence, A488-EDA fluorescence was read using microplate reader equipped with bottom-readout capabilities at 485 nm excitation and 525 nm emission. […]

[2] = system: human proximal tubular epithelial cells (HK-2); assay: Cell viability of proximal tubular epithelial cells (AlamarBlue); format: cell-based; conditions: doses up to 500 nM
Source text: Endogenous (cellular) fibronectin assembly assay: This immunochemical assay measures the ECM incorporation of EDA-containing fibronectin synthesized by human fibroblasts and human proximal tubular epithelial cells. Human proximal epithelial cells, HK-2 cells, were obtained from ATCC (CRL-2190). The EDA+ fibronectin is a splice variant synthesized and secreted by a variety of cells mostly during embryonic development and during wound healing, ECM remodeling, or fibrotic conditions in the adult. […] Fluorescence of AlamarBlue® was read at 555 nm excitation and 585 nm emission. […] Similar to the measurement of exogenous A488-FN fluorescence, A488-EDA fluorescence was read using microplate reader equipped with bottom-readout capabilities at 485 nm excitation and 525 nm emission. Fluorescence of wells to which A488-IgG was added, i.e., background green fluorescence from non-specific IgG binding and from the cell monolayer was subtracted from fluorescence values of wells incubated with A488-EDA. Data is presented for fibronectin fibrillogenesis or cell viability as percent of fluorescence values (AlexaFluor® 488 fluorescence or AlamarBlue®, respectively) for wells with no peptides.

| Substance | cell viability [1] [%] | decrease in fibroblast viability ([1]; highest concentration tested (500 nM)) | human proximal tubular epithelial cell viability [2] | fibroblast viability ([1]; doses up to 500 nM) |
| --- | --- | --- | --- | --- |
| FUD: 49 amino acid FUD peptide, SEQ ID NO: 1, recombinantly expressed, His-tag removed; inhibitor of fibronectin fibrillogenesis (KDQSPLAGESGETEYITEVYGNQQNPVDIDKKLPNETGFSGNMVETEDT; human) [reference compound] | 80 | approximately 20% | approximately 100% |  |
| PEG-FUD: PEGylated FUD prepared as in Example 1, PEG size not stated; approximately 27 kDa by mass spectrometry, likely the 20 kDa conjugate (KDQSPLAGESGETEYITEVYGNQQNPVDIDKKLPNETGFSGNMVETEDT; not fully specified (N-terminus); also: PEG size not given here) | 80 |  | approximately 100% | approximately 100% |
